Results reported in US20210032312A1 (Janssen / Centocor, published 2021).

Legend:
[1] = target: T1, human CD8A-Fc (recombinant human CD8 alpha fused to Fc fragment of human IgG1) (human, UniProt P01732 22-182, limits assumed); assay: SPR, dissociation rate on recombinant CD8 alpha
T1 construct: SPR ligand, captured by goat anti-human Fc; also called hCD8A-Fc; recombinant CD8 alpha; not shown: linker with flag (and polyhistidine) tag and Fc fragment of human IgG1; depends on which of the two constructs was used

[2] = target: T1, human CD8A-Fc (recombinant human CD8 …); assay: SPR (ProteOn), captured hCD8A-Fc, heterogeneous ligand fit, lower affinity population
Description: (§1) Human CD8A-Fc was then captured at five surface densities ranging from 200 to 1200 response units, leaving the 6th channel as empty channel control for GAH-Fc IgG surface. Binding was measured by flowing five different concentrations of anti-CD8A FN3 domains (1 μM diluted in a 3-fold dilution series) as analytes simultaneously in the horizontal orientation over the captured hCD8A-Fc surfaces, with a sixth analyte channel containing only running buffer PBST. All interactions were measured at 100 uL/min flow rate with association and dissociation times being 4, 30 minutes respectively. […] Data analyses were performed using Bio-Rad ProteOn Manager software (version 3.1.0.6). Raw data were double referenced by subtraction of the interspot (empty chip surface, no protein immobilized or captured) signals to correct the non-specific binding of the FN3 domain to the pre-coated GAH-Fc IgG surface, followed by a double referencing using the buffer blank response (to correct for any baseline drift resulting from ligand dissociation over time). […] Given that the GAH-Fc capture of hCD8A-Fc format is the least disruptive relative to other formats in introducing potential experimental artifacts (such as ligand activity loss and/or artificial eptiopes/heterogeneous ligand population due to amine coupling), it is considered that the results from the GAH-Fc capture experiments reported here represent the most reliable ProteOn SPR data, despite the non-conforming 1:1 Langmuir fits observed in many instances. A heterogeneous ligand model was chosen to fit the data assuming two different ligand species, either due to the heterogeneity in the ligand protein population or due to potential different mechanisms for each FN3 domain binding to the 2 hCD8A monomers in the Fc fusion protein.

[3] = target: T1, human CD8A-Fc (recombinant human CD8 …); assay: SPR (ProteOn), captured hCD8A-Fc, heterogeneous ligand fit, higher affinity population
Description: as §1

[4] = target: T1, human CD8A-Fc (recombinant human CD8 …); assay: SPR (ProteOn), captured hCD8A-Fc, heterogeneous ligand fit, lower affinity population; lower affinity population, heterogeneous ligand fit
Description: Human CD8A-Fc was then captured at five surface densities ranging from 200 to 1200 response units, leaving the 6th channel as empty channel control for GAH-Fc IgG surface. Binding was measured by flowing five different concentrations of anti-CD8A FN3 domains (1 μM diluted in a 3-fold dilution series) as analytes simultaneously in the horizontal orientation over the captured hCD8A-Fc surfaces, with a sixth analyte channel containing only running buffer PBST. All interactions were measured at 100 uL/min flow rate with association and dissociation times being 4, 30 minutes respectively. […] Data analyses were performed using Bio-Rad ProteOn Manager software (version 3.1.0.6). Raw data were double referenced by subtraction of the interspot (empty chip surface, no protein immobilized or captured) signals to correct the non-specific binding of the FN3 domain to the pre-coated GAH-Fc IgG surface, followed by a double referencing using the buffer blank response (to correct for any baseline drift resulting from ligand dissociation over time). […]

[5] = target: T2, human CD8A on primary human CD8+ T cells (human, UniProt P01732 22-235); assay: flow cytometry on human CD8+ T cells
T2 construct: whole, on cells; also called Human T-cells; CD8 alpha
Description: (§2) A full dose response binding curve was generated for the nineteen selected anti-CD8A FN3 domains. Each candidate was diluted to 20 μM in PBS followed by a 1:3 dilution series to generate either an 11-point or an 18-point dose response curve. Human or cyno CD8+ T cells were incubated with the diluted FN3 domain for 1 hour at 4° C. Cells were washed once with PBS and incubated with an anti-centyrin antibody (PAB25) for 1 hour at 4° C. The cells were washed twice with PBS, followed by incubation with a PE-secondary, anti-CD3-PacB, anti-CD4-APC, and a viability dye. Finally, cells were washed and resuspended in PBS for flow cytometric analysis using a BD Canto Instrument. CD8 T cells were defined as live CD3+CD4− cells. Median fluorescence intensity of the bound Centyrins (PE channel) and % of cells showing positive staining calculated using Cytobank software. Results were graphed using Prism and EC₅₀ values were calculated using the 4 parameter dose response variable slope equation.

[6] = target: T2, human CD8A on primary human CD8+ T cells; assay: MSD-CAT equilibrium cell binding, primary human CD8 T cells
Description: A MesoScale Discovery-Cell Affinity Technology (MSD-CAT) based equilibrium cell-binding assay was performed to determine the affinity of the top six anti-CD8A candidates binding to primary human cytotoxic T cell surface CD8A receptors. Each anti-CD8A FN3 domain at a constant concentration of […] was pre-incubated with 10 different concentrations of primary cytotoxic CD8 T cells (columns 2-11 in a row). Cell viability was checked prior to the binding measurements and a >85% viability was desired for valid analysis. Since these cells were from different donors, in case of donor-to-donor variations, only cells of the same donors were combined together. Each individual anti-CD8A FN3 domain binding was measured in replicates using cells from the same donors. Cells and FN3 domains were incubated overnight at 4° C. on a rotator to reach equilibrium. Following the incubation the cells were spun down along with cell bound anti-CD8A FN3 domains and the unbound (free) anti-CD8A FN3 domains in the supernatants is quantified using MSD assays where biotinylated recombinant hCD8A-Fc protein was captured at 0.6 ug/mL in assay buffer to streptavidin MSD plates overnight ˜16 hours at 4° C. After blocking the plate, supernatant with free anti-CD8A FN3 domains was added to the plate and incubated for 1 hr, then followed by SulfoTag pAb139 (In-house) detection at 1.6 ug/ml. A buffer control without any FN3 domain and hCD8A (plate background binding control) in column 1 and FN3 domain alone control without hCD8A (100% free/unbound) in column 12 were included. Mouse Anti-hCD8A mAb (mIgG1k, BD Biosciences, cat #555364, clone RPA-T8) was included as a positive control. Tencon27 was included in the initial assay validation as a negative control and no significant binding was observed, and therefore, was not included in the later cell binding due to the cell availability. Plates were read immediately on the MSD Sector Imager 6000™ Reader for luminescence levels after adding MSD Read Buffer by diluting 1:4 of stock into H2O.
Raw MSD data were exported and analysed in Prism using a non-linear fit with variable slope function to derive the Bmax and Hillslope values. Only those with converged Bmax values and hillslope within the range of −1.5˜−0.5 (ideal −1.0) will be considered for further analysis.

[7] = target: T3, cynomolgus monkey CD8A on cyno CD8+ T cells (cynomolgus monkey, UniProt P01732 23-235 (human entry)); assay: flow cytometry on cyno CD8+ T cells
T3 construct: also called cyno T-cells; Cyno CD8alpha
Description: as §2

human CD8A on cells = target: T4, human CD8A on cells (human, UniProt P01732 22-235); assay: MSD-CAT equilibrium cell-binding assay on primary human cytotoxic CD8 T cells
T4 construct: whole, on cells; also called CD8A receptors on primary human cytotoxic T cells
Description: A MesoScale Discovery-Cell Affinity Technology (MSD-CAT) based equilibrium cell-binding assay was performed to determine the affinity of the top six anti-CD8A candidates binding to primary human cytotoxic T cell surface CD8A receptors. Each anti-CD8A FN3 domain at a constant concentration of […] was pre-incubated with 10 different concentrations of primary cytotoxic CD8 T cells (columns 2-11 in a row). Cell viability was checked prior to the binding measurements and a >85% viability was desired for valid analysis. Since these cells were from different donors, in case of donor-to-donor variations, only cells of the same donors were combined together. Each individual anti-CD8A FN3 domain binding was measured in replicates using cells from the same donors. […] Following the incubation the cells were spun down along with cell bound anti-CD8A FN3 domains and the unbound (free) anti-CD8A FN3 domains in the supernatants is quantified using MSD assays where biotinylated recombinant hCD8A-Fc protein was captured at 0.6 ug/mL in assay buffer to streptavidin MSD plates overnight ˜16 hours at 4° C. […] Plates were read immediately on the MSD Sector Imager 6000™ Reader for luminescence levels after adding MSD Read Buffer by diluting 1:4 of stock into H2O.
Raw MSD data were exported and analysed in Prism using a non-linear fit with variable slope function to derive the Bmax and Hillslope values. […]

T1 sequence (P01732 22-182 limits assumed): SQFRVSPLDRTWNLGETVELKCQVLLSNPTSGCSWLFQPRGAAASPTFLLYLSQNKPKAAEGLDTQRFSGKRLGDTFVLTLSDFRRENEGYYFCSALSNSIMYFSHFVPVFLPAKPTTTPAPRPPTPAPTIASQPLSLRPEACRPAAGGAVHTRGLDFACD
T2 sequence (P01732 22-235): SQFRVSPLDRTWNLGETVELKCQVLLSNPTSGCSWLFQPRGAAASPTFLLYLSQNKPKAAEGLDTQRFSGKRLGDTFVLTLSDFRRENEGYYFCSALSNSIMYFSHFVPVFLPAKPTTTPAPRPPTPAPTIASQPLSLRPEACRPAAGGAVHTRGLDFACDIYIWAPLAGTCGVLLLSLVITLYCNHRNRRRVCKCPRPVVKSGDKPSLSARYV
T3 sequence (P01732 other isoform, or with tags, fused parts or gaps limits assumed): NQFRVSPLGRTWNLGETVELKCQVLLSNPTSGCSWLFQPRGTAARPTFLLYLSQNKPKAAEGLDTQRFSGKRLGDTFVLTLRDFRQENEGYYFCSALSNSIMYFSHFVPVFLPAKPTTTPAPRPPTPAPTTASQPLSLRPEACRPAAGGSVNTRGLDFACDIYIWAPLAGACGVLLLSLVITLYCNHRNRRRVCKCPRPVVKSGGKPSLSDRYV
T4 sequence (P01732 22-235): as the sequence (P01732 22-235) above

| Binder | EC50 [5] | Kd [6] | EC50 [7] | further results |
| --- | --- | --- | --- | --- |
| P282DR9P1359_F5 (designed binder, FN3 domain (Centyrin); purified as His-tagged protein, tag not in the entry) LPAPKNLVVSRVTEDSARLSWTAPDAAFDSFQIAYPEWPPPGEAIVLTVPGSERSYDLTGLKPGTEYFVIIQGVKGGVESWPLSAIFTT |  |  |  | koff [1]: 5.78e-05 s⁻¹; koff [2]: 6.6e-05 s⁻¹; kon [2]: 34800 M⁻¹ s⁻¹; Kd [3]: 0.04 nM; koff [3]: 1.42e-05 s⁻¹; kon [3]: 380000 M⁻¹ s⁻¹; Kd [4]: 6.6 nM |
| CD8S368 (designed binder, P282DR9P1359_F5 with E54C; the entry holds the mutation) LPAPKNLVVSRVTEDSARLSWTAPDAAFDSFQIAYPEWPPPGEAIVLTVPGSCRSYDLTGLKPGTEYFVIIQGVKGGVESWPLSAIFTT | 155 nM | 0.459 nM | 70 nM |  |
| CD8S370 (designed binder, P282DR9P1359_G7 with E54C; the entry holds the mutation) LPAPKNLVVSRVTEDSARLSWTAPDAAFDSFAITYIEKEHIEDGEAIVLTVPGSCRSYDLTGLKPGTEYWVPIWGVKGGANSWPLSAIFTT | 209 nM | 0.869 nM | 67.6 nM |  |
| CD8S369 (designed binder, P283AR9P1362_D6 with E54C; the entry holds the mutation) LPAPKNLVVSRVTEDSARLSWAKRPGAFDSFLIQYQESEKVGEAIVLTVPGSCRSYDLTGLKPGTEYTVSIYGVDVKYDIDSRPISSNPLSAIFTT | 124 nM | 2.81 nM | 72.3 nM |  |
| Tencon27 (designed binder, negative control scaffold; also called Stabilized Tencon) LPAPKNLVVSRVTEDSARLSWTAPDAAFDSFLIQYQESEKVGEAIVLTVPGSERSYDLTGLKPGTEYTVSIYGVKGGHRSNPLSAIFTT |  |  |  | binding result (human CD8A on cells): no binding |
